# Source: patent US20260098095A1 (Hoffmann-La Roche, published 2026)
# Experiments:
# [1] = target: T1, HLA-A2/MAGE-A4 peptide MHC (pMHC) complex on cells (human); assay: cell-based or functional assay
# [2] = target: T1, HLA-A2/MAGE-A4 peptide MHC (pMHC) …; assay: cell-based or functional assay; remark: listed apart in the source
# [3] = target: T2, HLA-A2/MAGE-A4p230-239 complex (human); assay: SPR Biacore T200, antibody captured by anti-human Fc, pMHC complex as analyte, 25 C, 1:1 Langmuir fit
# T2 construct: also called HLA-A2/MAGEp230-239
# Description: The dissociation phase was monitored for 240 s and triggered by switching from the sample solution to HBS-EP+. The chip surface was regenerated after every cycle using an injection of 3M MgCl₂ at 10 μl/min for 30 sec. Bulk refractive index differences were corrected for by subtracting the response obtained on the reference flow cell which contains the anti-human Fc antibody, but without HLA-A2/MAGE-A4 antibody captured on it. The affinity constants were derived from the kinetic rate constants by fitting to a 1:1 Langmuir binding using the BIAeval software (GE Healthcare). The measurement was performed in triplicate with independent dilution series.
# [4] = target: T1, HLA-A2/MAGE-A4 peptide MHC (pMHC) …; assay: cell-based or functional assay; remark: listed apart in the source
# BNRF1 = BNRF1 (human); assay: cell-based or functional assay
# MAGEB2 = MAGEB2 (human); assay: cell-based or functional assay
# GAPDHS = GAPDHS (human); assay: cell-based or functional assay
# URB1 = URB1 (human); assay: cell-based or functional assay
# CCS = CCS (human); assay: cell-based or functional assay
# DPYSL4 = DPYSL4 (human); assay: cell-based or functional assay
# MTOR = MTOR (human); assay: cell-based or functional assay
# KDM1A = KDM1A (human); assay: cell-based or functional assay
# VPS13D = VPS13D (human); assay: cell-based or functional assay
# FBXO34 = FBXO34 (human); assay: cell-based or functional assay
# PIGG = PIGG (human); assay: cell-based or functional assay
# ARF3 = ARF3 (human); assay: cell-based or functional assay
# UNC80 = UNC80 (human); assay: cell-based or functional assay
# DPYSL3 = DPYSL3 (human); assay: cell-based or functional assay
# ARF1 = ARF1 (human); assay: cell-based or functional assay
# pfkA = pfkA (human); assay: cell-based or functional assay
# UBE2V2 = UBE2V2 (human); assay: cell-based or functional assay
# KEAP1 = KEAP1 (human); assay: cell-based or functional assay
# EDC3 = EDC3 (human); assay: cell-based or functional assay
# CRMP1 = CRMP1 (human); assay: cell-based or functional assay
# SLC45A1 = SLC45A1 (human); assay: cell-based or functional assay
# DYNC1H1 = DYNC1H1 (human); assay: cell-based or functional assay
# PKP1 = PKP1 (human); assay: cell-based or functional assay
# gutQ = gutQ (human); assay: cell-based or functional assay
# [5] = target: T1, HLA-A2/MAGE-A4 peptide MHC (pMHC) …; assay: cell-based or functional assay; remark: listed apart in the source
# V2A = V2A (human); assay: cell-based or functional assay
# R6A = R6A (human); assay: cell-based or functional assay
# H8A = H8A (human); assay: cell-based or functional assay
# [6] = target: T1, HLA-A2/MAGE-A4 peptide MHC (pMHC) …; assay: cell-based or functional assay; remark: listed apart in the source
# D4A = D4A (human); assay: cell-based or functional assay
# E7A = E7A (human); assay: cell-based or functional assay
# T9A = T9A (human); assay: cell-based or functional assay
# G5A = G5A (human); assay: cell-based or functional assay
# Y3A = Y3A (human); assay: cell-based or functional assay
# V10A = V10A (human); assay: cell-based or functional assay
# G1A = G1A (human); assay: cell-based or functional assay
# [7] = target: T1, HLA-A2/MAGE-A4 peptide MHC (pMHC) …; assay: cell-based or functional assay; remark: listed apart in the source
binder,measurement,setting,value
"Molecule U (bispecific antibody, V domains shown) VH 1: QVQLQQSGGEVMKPGASVKLSCKATGYTFTGYWIEWIKQRPGHGLEWIGEILPGSGGTNYNEKFKGKATFTAHTSSNTAYMQLSSLTTEDSAIYYCARDSNSFTYWGQGTLVTVSS VL 1: QIVLTQSPAIMSASPGEKVTITCSVSSSVDYIHWFQQKPGTSPKFWIYSTSILASGVPARFSGSGSGTSYSLTISRMEAEDAATYYCQQRSSYPPTFGSGTKLEIK VH 2: EVQLVESGGGLVQPGGSLRLSCAASGYSFTGYTMNWVRQAPGKGLEWVALINPYKGVSTYNQKFKDRFTISVDKSKNTAYLQMNSLRAEDTAVYYCARSGYYGDSDWYFDVWGQGTLVTVSS VL 2: DIQMTQSPSSLSASVGDRVTITCRASQDIRNYLNWYQQKPGKAPKLLIYYTSRLESGVPSRFSGSGSGTDYTLTISSLQPEDFATYYCQQGNTLPWTFGQGTKVEIK","EC50 (nM), T-cell mediated lysis of A375 cells, 48 h",[1],1.96 nM
same,"EC50 (nM), T-cell mediated lysis of NCI-H2023 cells, 48 h",[1],1.12 nM
same,"EC50 (nM), T-cell mediated lysis of UMUC-3 cells, 48 h",[1],0.45 nM
"Molecule N (antibody, V domains shown) VH: QVQLQQSGGEVMKPGASVKLSCKATGYTFTGYWIEWIKQRPGHGLEWIGEILPGSGGTNYNEKFKGKATFTAHTSSNTAYMQLSSLTTEDSAIYYCARDSNSFTYWGQGTLVTVSS VL: QIVLTQSPAIMSASPGEKVTITCSVSSSVDYIHWFQQKPGTSPKFWIYSTSILASGVPARFSGSGSGTSYSLTISRMEAEDAATYYCQQRSSYPPTFGSGTKLEIK","EC50 (pM), activation of PGLALA-CAR-J cells in presence of MAGE-A4 peptide pulsed T2 cells",[2],19.2 pM
"Molecule L (antibody, V domains shown, also called 032G09 IgG antibody) VH: not shown VL: SSELTQDPAVSVALGQTVRITCQGDSLRSYYASWYQQKPGQAPVLVIYGKNNRPSGIPDRFSGSSSGNTASLTITGAQAEDEADYYCNSRQSSYYHHIVFGGGTKLTVL","EC50 (pM), activation of PGLALA-CAR-J cells in presence of MAGE-A4 peptide pulsed T2 cells",[2],83.7 pM
same,Kd,[3],25.1 nM
same,koff,[3],0.003 s⁻¹
same,kon,[3],120000 M⁻¹ s⁻¹
"Molecule M (antibody, V domains shown, also called 034F05 IgG antibody) VH: not shown VL: SSELTQDPAVSVALGQTVRITCQGDSLRSYYASWYQQKPGQAPVLVIYGKNNRPSGIPDRFSGSSSSNTASLTITGAQAEDEADYYCNSRMSSRYHHDVFGGGTKLTVL","EC50 (pM), activation of PGLALA-CAR-J cells in presence of MAGE-A4 peptide pulsed T2 cells",[2],19.2 pM
same,Kd,[3],2.47 nM
same,koff,[3],0.00111 s⁻¹
same,kon,[3],450000 M⁻¹ s⁻¹
"Molecule C (bispecific antibody, V domains shown) VH 1: TQQLVESGGGLVQPGGSLRLSCAASGFSFSFDTMSWVRQAPGKGLEWVGSISPSGGSTYYNDNVLGRFTISRDNSKNTLYLQMNSLRAEDTAVYYCARDHGYFDMWGQGTLVTVSS VL 1: DIQMTQSPSSLSASVGDRVTITCRASQSISSYLAWYQQKPGKAPKLLIYDASWLELGVPSRFSGSGSGTDFTLTISSLQPEDFATYYCQQYSSYPYTFGQGTKLEIK VH 2: not shown VL 2: QAVVTQEPSLTVSPGGTVTLTCGSSTGAVTTSNYANWVQEKPGQAFRGLIGGTNKRAPGTPARFSGSLLGGKAALTLSGAQPEDEAEYYCALWYSNLWVFGGGTKLTVL","EC50 [pM], activation of Jurkat-NFAT reporter cells (luminescence, 6 h) with MAGE-A4 peptide pulsed T2 cells",[4],976 pM
same,"% of MAGE-A4 signal, Jurkat-NFAT",BNRF1,0.36%
same,"% of MAGE-A4 signal, Jurkat-NFAT",MAGEB2,0.34%
same,"% of MAGE-A4 signal, Jurkat-NFAT",GAPDHS,0.37%
same,"% of MAGE-A4 signal, Jurkat-NFAT",URB1,0.45%
same,"% of MAGE-A4 signal, Jurkat-NFAT",CCS,0.29%
same,"% of MAGE-A4 signal, Jurkat-NFAT",DPYSL4,0.27%
same,"% of MAGE-A4 signal, Jurkat-NFAT",MTOR,0.26%
same,"% of MAGE-A4 signal, Jurkat-NFAT",KDM1A,0.24%
same,"% of MAGE-A4 signal, Jurkat-NFAT",VPS13D,0.39%
same,"% of MAGE-A4 signal, Jurkat-NFAT",FBXO34,0.39%
same,"% of MAGE-A4 signal, Jurkat-NFAT",PIGG,0.33%
same,"% of MAGE-A4 signal, Jurkat-NFAT",ARF3,0.49%
same,"% of MAGE-A4 signal, Jurkat-NFAT",UNC80,0.43%
same,"% of MAGE-A4 signal, Jurkat-NFAT",DPYSL3,0.35%
same,"% of MAGE-A4 signal, Jurkat-NFAT",ARF1,0.23%
same,"% of MAGE-A4 signal, Jurkat-NFAT",pfkA,0.4%
same,"% of MAGE-A4 signal, Jurkat-NFAT",UBE2V2,0.52%
same,"% of MAGE-A4 signal, Jurkat-NFAT",KEAP1,0.51%
same,"% of MAGE-A4 signal, Jurkat-NFAT",EDC3,0.48%
same,"% of MAGE-A4 signal, Jurkat-NFAT",CRMP1,0.29%
same,"% of MAGE-A4 signal, Jurkat-NFAT",SLC45A1,0.22%
same,"% of MAGE-A4 signal, Jurkat-NFAT",DYNC1H1,0.17%
same,"% of MAGE-A4 signal, Jurkat-NFAT",PKP1,0.49%
same,"% of MAGE-A4 signal, Jurkat-NFAT",gutQ,0.36%
same,"EC50 [pM] 24 h, T-cell mediated lysis of MAGE-A4 peptide pulsed T2 cells",[5],121 pM
same,"EC50, Jurkat-NFAT activation",V2A,0.687 nM
same,"EC50, Jurkat-NFAT activation",R6A,4.34 nM
same,"EC50, Jurkat-NFAT activation",H8A,3.94 nM
same,"EC50, Jurkat-NFAT activation",[6],1.03 nM
same,"EC50, Jurkat-NFAT activation",D4A,0.738 nM
same,"EC50, Jurkat-NFAT activation",E7A,1.22 nM
same,"EC50, Jurkat-NFAT activation",T9A,0.67 nM
same,"EC50, Jurkat-NFAT activation",G5A,16.8 nM
same,"EC50, Jurkat-NFAT activation",Y3A,0.626 nM
same,"EC50, Jurkat-NFAT activation",V10A,13 nM
same,"EC50, Jurkat-NFAT activation",G1A,1.44 nM
same,"EC50 [pM], T-cell mediated lysis of IM-9 cells, 24 h",[7],2740 pM
same,"EC50 [pM], T-cell mediated lysis of NCI-H1755 cells, 24 h",[7],460 pM
"Molecule K (antibody, V domains shown, also called 057D03 IgG antibody) VH: AQLVESGGGLVQPGGSLRLSCAASAYFSFKAMSWVRQAPGKGLEWVGSISPSGGSTYYNDNVLGRFTISRDNSKNTLYLQMNSLRAEDTAVYYCAKDVGFFDEWGQGTLVTVSS VL: DIQMTQSPSSLSASVGDRVTITCRASQSISSYLAWYQQKPGKAPKLLIYDASIRDIGVPSRFSGSGSGTDFTLTISSLQPEDFATYYCQQYSSYPYTFGQGTKLEIK","EC50 (pM), activation of PGLALA-CAR-J cells in presence of MAGE-A4 peptide pulsed T2 cells",[2],18.2 pM
same,Kd,[3],15.7 nM
same,koff,[3],0.0408 s⁻¹
same,kon,[3],2.6e+06 M⁻¹ s⁻¹
"Molecule J (antibody, V domains shown, also called 057B04 IgG antibody) VH: TQQLVESGGGLVQPGGSLRLSCAASGFSFSFDTMSWVRQAPGKGLEWVGSISPSGGSTYYNDNVLGRFTISRDNSKNTLYLQMNSLRAEDTAVYYCARDHGYFDMWGQGTLVTVSS VL: DIQMTQSPSSLSASVGDRVTITCRASQSISSYLAWYQQKPGKAPKLLIYDASWLELGVPSRFSGSGSGTDFTLTISSLQPEDFATYYCQQYSSYPYTFGQGTKLEIK","EC50 (pM), activation of PGLALA-CAR-J cells in presence of MAGE-A4 peptide pulsed T2 cells",[2],208 pM
same,Kd,[3],40.7 nM
same,koff,[3],0.043 s⁻¹
same,kon,[3],1.06e+06 M⁻¹ s⁻¹
"Molecule H (antibody, V domains shown, also called 007A09 IgG antibody) VH: YVQLVESGGGLVKPGGSLRLSCAAPLPFTGLDMSWVRQAPGKGLEWVGSISPKGGSTYYNDNVLGRFTISRDNSKNTLYLQMNSLRAEDTAVYYCARDWGFFDLWGQGTLVTVSS VL: AIQMTQSPSSLSASVGDRVTITCRASQSISNYLAWYQQKPGKAPKLLIYDANAHENDVPSRFSGSGSGTDFTLTISSLQPEDFATYYCQQYSSHPYTFGQGTKLEIK","EC50 (pM), activation of PGLALA-CAR-J cells in presence of MAGE-A4 peptide pulsed T2 cells",[2],8.6 pM
same,Kd,[3],17.3 nM
same,koff,[3],0.00426 s⁻¹
same,kon,[3],247000 M⁻¹ s⁻¹
"Molecule I (antibody, V domains shown, also called 007D10 IgG antibody) VH: YPQLVESGGGLVKPGGSLRLSCAARYPFTRLDMSWVRQAPGKGLEWVGSISPKGGSTYYNDNVLGRFTISRDNSKNTLYLQMNSLRAEDTAVYYCARDWGFFDNWGQGTLVTVSS VL: AIQMTQSPSSLSASVGDRVTITCRASQSISNYLAWYQQKPGKAPKLLIYNASHPEYDVPSRFSGSGSGTDFTLTISSLQPEDFATYYCQQYSSHPYTFGQGTKLEIK","EC50 (pM), activation of PGLALA-CAR-J cells in presence of MAGE-A4 peptide pulsed T2 cells",[2],182 pM
same,Kd,[3],96.4 nM
same,koff,[3],0.00246 s⁻¹
same,kon,[3],25500 M⁻¹ s⁻¹
